{"source": "patent US20210047420A1", "about": "(TUSK THERAPEUTICS, published 2021)", "binders": {"B1": {"name": "Antibody 7 (antibody, V domains shown)", "VH": "QVQLQESGPGLVKPSETLSLTCTVSGFSLTSYGIQWVRQPPGKGLEWIGVIWAGGSTNYNSALMSRVTISKDNSKSQFSLKLSSVTAADTAVYYCARAYGYDGSWLAYWGQGTLVTVSS", "VL": "DIQMTQSPSSLSASVGDRVTITCRASSSVSYMHWYQQKPGKAPKPLIFATSNLASGVPSRFSGSGSGTDYTLTISSLQPEDFATYYCQQWSSNPPTFGGGTKLEIK"}, "B2": {"name": "Antibody 1 (antibody, V domains shown)", "VH": "B1 VH with V37I, S76N", "VL": "EIVLTQSPATLSLSPGERATLSCRASSSVSYMHWYQQKPGQAPRPLIFATSNLASGIPARFSGSGSGTDFTLTISSLEPEDFAVYYCQQWSSNPPTFGGGTKLEIK"}, "B3": {"name": "Antibody 2 (antibody, V domains shown)", "VH": "B1 VH with V37I, S76N", "VL": "B2 VL with E1Q, F70Y"}, "B4": {"name": "Antibody 8 (antibody, V domains shown)", "VH": "B1 VH", "VL": "B1 VL with D1Q, M4L, A42S"}, "B5": {"name": "Antibody 3 (antibody, V domains shown)", "VH": "B1 VH with V37I, S76N", "VL": "B1 VL"}, "B6": {"name": "Antibody 12 (antibody, V domains shown)", "VH": "QVQLVESGGGVVQPGGSLRLSCAVSGFSLTSYGIQWVRQAPGKGLEWVSVIWAGGSTNYNSALMSRFTISKDNSKSTLYLQMNSLRAEDTAVYYCARAYGYDGSWLAYWGQGTLVTVSS", "VL": "B1 VL with D1Q, M4L, A42S"}, "B7": {"name": "Antibody 5 (antibody, V domains shown)", "VH": "B1 VH", "VL": "B2 VL"}, "B8": {"name": "Antibody 4 (antibody, V domains shown)", "VH": "B1 VH with V37I, S76N", "VL": "B1 VL with D1Q, M4L, A42S"}, "B9": {"name": "Antibody 6 (antibody, V domains shown)", "VH": "B1 VH", "VL": "B2 VL with E1Q, F70Y"}, "B10": {"name": "Antibody 11 (antibody, V domains shown)", "VH": "B6 VH", "VL": "B1 VL"}, "B11": {"name": "Antibody 10 (antibody, human IgG1, V domains shown)", "VH": "B6 VH", "VL": "B2 VL with E1Q, F70Y", "notes": "also called Ab10; Antibody 10-hIgG1"}, "B12": {"name": "Antibody 9 (antibody, V domains shown)", "VH": "B6 VH", "VL": "B2 VL"}}, "key": {"[1]": {"molecular_target": "T1, recombinant human CD25 his tagged (UniProt P01589 22-240)", "T1 chain": "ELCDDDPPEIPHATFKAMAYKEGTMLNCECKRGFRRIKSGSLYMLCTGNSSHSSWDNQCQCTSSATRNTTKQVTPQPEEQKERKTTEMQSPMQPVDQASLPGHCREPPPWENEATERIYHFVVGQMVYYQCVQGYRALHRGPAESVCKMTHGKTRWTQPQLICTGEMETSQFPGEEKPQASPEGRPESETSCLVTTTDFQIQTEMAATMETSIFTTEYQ", "assay": "SPR (Biacore 2000)"}, "[2]": {"molecular_target": "T1, recombinant human CD25 his tagged", "assay": "SPR (Biacore 2000)"}, "[3]": {"molecular_target": "T1, recombinant human CD25 his tagged", "assay": "SPR (Biacore 2000)"}, "[4]": {"molecular_target": "T1, recombinant human CD25 his tagged", "assay": "SPR (Biacore 2000)"}, "[5]": {"molecular_target": "T2, recombinant human CD25 his tagged (human, UniProt P01589 22-240, limits assumed)", "T2 construct": "also called rhCD25 his tagged; rhCD25; not shown: his tag", "T2 sequence": "T1 chain", "assay": "Octet sequential binding, rhCD25 his tagged on Ni-NTA biosensors, first antibody"}}, "note": "Changes are numbered by the printed parent chain. Where two headings read alike, the source gives them in different places.", "data": [{"binder": "B1", "values": [{"measurement": "Kd", "setting": "[1]", "value": 2.1, "unit": "nM"}]}, {"binder": "B2", "values": [{"measurement": "Kd", "setting": "[2]", "value": 1.2, "unit": "nM"}]}, {"binder": "B3", "values": [{"measurement": "Kd", "setting": "[2]", "value": 4.8, "unit": "nM"}]}, {"binder": "B4", "values": [{"measurement": "Kd", "setting": "[1]", "value": 1.7, "unit": "nM"}]}, {"binder": "B5", "values": [{"measurement": "Kd", "setting": "[2]", "value": 0.3, "unit": "nM"}]}, {"binder": "B6", "values": [{"measurement": "Kd", "setting": "[3]", "value": 6.9, "unit": "nM"}]}, {"binder": "B7", "values": [{"measurement": "Kd", "setting": "[4]", "value": 2.6, "unit": "nM"}]}, {"binder": "B8", "values": [{"measurement": "Kd", "setting": "[4]", "value": 1.1, "unit": "nM"}]}, {"binder": "B9", "values": [{"measurement": "Kd", "setting": "[4]", "value": 2.9, "unit": "nM"}]}, {"binder": "B10", "values": [{"measurement": "Kd", "setting": "[3]", "value": 10.2, "unit": "nM"}]}, {"binder": "B11", "values": [{"measurement": "binding result", "setting": "[5]", "value": "binds"}, {"measurement": "Kd", "setting": "[3]", "value": 7.6, "unit": "nM"}]}, {"binder": "B12", "values": [{"measurement": "Kd", "setting": "[1]", "value": 8.8, "unit": "nM"}]}]}
